From patent US20200055939A1 (Genentech, published 2020)
Substitutions are numbered along the chain they refer to.

T1: I236A
T1 construct: % monomer 92.49; also called MICA*008.mIgG2a I236A
T1 chain: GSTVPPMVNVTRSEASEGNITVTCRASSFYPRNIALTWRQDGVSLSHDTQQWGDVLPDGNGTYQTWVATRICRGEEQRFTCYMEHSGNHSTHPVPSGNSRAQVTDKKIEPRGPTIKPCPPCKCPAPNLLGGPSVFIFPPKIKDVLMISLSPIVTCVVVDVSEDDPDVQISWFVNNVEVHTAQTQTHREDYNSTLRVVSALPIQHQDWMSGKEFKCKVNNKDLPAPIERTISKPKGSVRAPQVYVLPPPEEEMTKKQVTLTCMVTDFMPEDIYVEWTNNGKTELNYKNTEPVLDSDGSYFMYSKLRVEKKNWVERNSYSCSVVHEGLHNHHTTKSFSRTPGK

T2: T250A
T2 construct: % monomer 91.61; also called MICA*008.mIgG2a T250A
T2 chain: T1 chain with A35I, T49A

T3: E285A
T3 construct: % monomer 83.78; also called MICA*008.mIgG2a E285A
T3 chain: T1 chain with A35I, E84A

T4: T238A
T4 construct: % monomer 96; also called MICA*008.mIgG2a T238A
T4 chain: T1 chain with A35I, T37A

T5: N289A
T5 construct: % monomer 89.74; also called MICA*008.mIgG2a N289A
T5 chain: T1 chain with A35I, N88A

T6: S245A
T6 construct: % monomer 93.96; also called MICA*008.mIgG2a S245A
T6 chain: T1 chain with A35I, S44A

T7: H248A
T7 construct: % monomer 92.05; also called MICA*008.mIgG2a H248A
T7 chain: T1 chain with A35I, H47A

B1: 6F8.7 Fab (Fab, V domains shown)
VH: DVQLQGSGPGLVKPSQSLSLTCSVTGYSITNDYYWNWIRQFPGNKLEWMGFISFGGSNNYNPSLKNRISITRDTSKNQFFLKLSSVTTEDTATYYCARYDGRGAWFAYWAQGTLVTVSA
VL: DIQMTQSPASLSASVGETVTITCRASGNIHNYLAWYQQKQGKSPQLLVYDAITLADGVPSRFSGSGSGTQYSLKINSLQPEDFGNYYCQHFWSFPLTFGAGTKVEIK
B2: 7D4.6 Fab (Fab, V domains shown)
VH: DVQLQESGPGLVKPSQSLSLTCTVTGYSITSDYAWNWIRQFPRNKLEWMGYINYSGTTNYNPSLKSRISITRDTSKNQFFLQLISVTTEDTATYYCSYYRYDGAWFPYWGQGTLVTVSA
VL: B1 VL with D50N, T53M, G64A, N85S
B3: 2E5.2.3 Fab (Fab, V domains shown)
VH: QGQMQQSGAELVKPGASVKLSCKTSGFTFSDNYISWLKQKPGQSLEWIAWIYAGTGGTSYNQKFTAKAQLTVDTSSSTAYMQFSSLTTEDSAIYYCARHDYYGTSGAWFAYWGQGTLVTVSA
VL: DVLMTQTPLSLPVSLGDQASLSCRSSQNIVHINGNTYLEWYLQKPGQSPKLLIYKVSNRFSGVPDRFSGSGSGTDFTLKISRVEAEDLGVYYCFQGSHVPWTFGGGTKVEIK
B4: 1D5 Fab (Fab, V domains shown)
VH: EIQLQQSGPELVKPGASVKVSCKASGYAFTSQNIYWVKQSHGKSLEWIGYIEPYNVVPMYNPKFKGKATLTVDKSSSSAYIHLNSLTSEDSAIYYCARSGSSNFDYWGQGTTLTVSS
VL: EIILTQSPTTMAASPGEKITITCSASSSISSHYLHWYQQKSGFSPKLLIYRTSNLASGVPARFSGSGSGTSYSLTIGTMEAEDVATYYCQQGSSLPLTFGAGTKVEIK
notes: Expressed in E. coli as chimera of murine variable and human constant domains; not shown: human IgG1 CH1 constant domain; human kappa CL constant domain

Target: T1, I236A
Assay: SPR, Fab over captured MICA*008.mIgG2a Ala variant; KD relative to wild type

| Binder | fold-decrease in affinity |
| --- | --- |
| B1 | 1.4 |
| B2 | 1.2 |
| B3 | 0.9 |

Target: T2, T250A
Assay: as above

| Binder | fold-decrease in affinity |
| --- | --- |
| B1 | 0.5 |
| B2 | 0.6 |
| B4 | 8.8 |
| B3 | 1.2 |

Target: T3, E285A
Assay: as above

| Binder | fold-decrease in affinity |
| --- | --- |
| B1 | 3.9 |
| B2 | 7.9 |
| B3 | 0.9 |

Target: T4, T238A
Assay: as above

| Binder | fold-decrease in affinity |
| --- | --- |
| B1 | 0.1 |
| B2 | 0.1 |
| B4 | 0.4 |
| B3 | 1.3 |

Target: T5, N289A
Assay: as above

| Binder | fold-decrease in affinity |
| --- | --- |
| B1 | 1.2 |
| B2 | 3.5 |
| B4 | 0.2 |
| B3 | 1.1 |

Target: T6, S245A
Assay: as above

| Binder | fold-decrease in affinity |
| --- | --- |
| B1 | 1.2 |
| B2 | 1.6 |
| B3 | 1 |

Target: T7, H248A
Assay: as above

| Binder | fold-decrease in affinity |
| --- | --- |
| B1 | 0.6 |
| B2 | 0.6 |
| B3 | 1 |
